What was measured:
[1] = molecular target: T1, barley UGPase (Hordeum vulgare, UniProt Q43772); assay: Pi release from PPi, phosphomolybdate colorimetry; assay type: biochemical; conditions: forward reaction, 5 mM MgCl2, pH 7.5, room temperature
T1 construct: recombinant, expressed in E. coli, purified to homogeneity as earlier reported

[2] = tested on: C[C@H]1O[C@H](OP(=O)(O)O)[C@H](O)[C@@H](O)[C@H]1O; assay: Pi release from PPi, phosphomolybdate colorimetry; assay type: biochemical, Arabidopsis thaliana; conditions: forward reaction, co-substrate UTP, 5 mM MgCl2, pH 7.5, room temperature
[3] = tested on: O=C(O)[C@H]1O[C@H](OP(=O)(O)O)[C@H](O)[C@@H](O)[C@H]1O; assay: Pi release from PPi, phosphomolybdate colorimetry; assay type: biochemical, Arabidopsis thaliana; conditions: forward reaction, co-substrate UTP, 5 mM MgCl2, pH 7.5, room temperature
[4] = tested on: O=P(O)(O)OP(=O)(O)O; assay: purified protein; assay type: biochemical, Arabidopsis thaliana; conditions: reverse reaction, co-substrate UDP-Glc, 5 mM MgCl2, pH 7.5
[5] = tested on: O=c1ccn([C@@H]2O[C@H](CO[P@@](=O)(O)O[P@@](=O)(O)O[C@H]3O[C@H](CO)[C@@H](O)[C@H](O)[C@H]3O)[C@@H](O)[C@H]2O)c(=O)[nH]1; assay: purified protein; assay type: biochemical, Arabidopsis thaliana; conditions: reverse reaction, co-substrate PPi, 5 mM MgCl2, pH 7.5
[6] = tested on: CC(=O)N[C@H]1[C@@H](OP(=O)(O)O)O[C@H](CO)[C@H](O)[C@@H]1O; assay: Pi release from PPi, phosphomolybdate colorimetry; assay type: biochemical, Arabidopsis thaliana; conditions: forward reaction, co-substrate UTP, 5 mM MgCl2, pH 7.5, room temperature
[7] = tested on: O=P(O)(O)O[C@H]1O[C@H](CO)[C@@H](O)[C@H](O)[C@H]1O; assay: Pi release from PPi, phosphomolybdate colorimetry; assay type: biochemical, Arabidopsis thaliana; conditions: forward reaction, co-substrate UTP, 5 mM MgCl2, pH 7.5, room temperature
[8] = tested on: O=c1ccn([C@@H]2O[C@H](COP(=O)(O)OP(=O)(O)OP(=O)(O)O)[C@@H](O)[C@H]2O)c(=O)[nH]1; assay: Pi release from PPi, phosphomolybdate colorimetry; assay type: biochemical, Arabidopsis thaliana; conditions: forward reaction, co-substrate GalNAc-1-P, 5 mM MgCl2, pH 7.5, room temperature
[9] = molecular target: T2, Arabidopsis UGPase2 (Arabidopsis thaliana, UniProt P57751); assay: Pi release from PPi, phosphomolybdate colorimetry; assay type: biochemical; conditions: 1 mM Glc-1-P; 1 mM UTP; 5 mM MgCl2; pH 7.5; room temperature
T2 construct: gene UGP1; recombinant, expressed in E. coli, purified to homogeneity as earlier reported
T2 sequence (P57751 2-470): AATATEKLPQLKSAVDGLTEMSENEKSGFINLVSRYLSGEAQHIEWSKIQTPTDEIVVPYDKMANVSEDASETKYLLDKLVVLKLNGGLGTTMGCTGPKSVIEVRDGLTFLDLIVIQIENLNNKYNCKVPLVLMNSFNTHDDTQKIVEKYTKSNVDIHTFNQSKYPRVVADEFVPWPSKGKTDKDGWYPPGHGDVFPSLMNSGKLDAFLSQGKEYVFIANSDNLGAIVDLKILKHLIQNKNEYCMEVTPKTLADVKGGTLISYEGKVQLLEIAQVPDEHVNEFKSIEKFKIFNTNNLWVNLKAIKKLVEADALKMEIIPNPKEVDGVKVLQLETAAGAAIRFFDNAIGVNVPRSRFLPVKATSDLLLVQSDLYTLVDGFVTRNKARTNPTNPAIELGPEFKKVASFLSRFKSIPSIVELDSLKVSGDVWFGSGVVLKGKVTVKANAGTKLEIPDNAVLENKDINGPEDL

[10] = tested on: O=P(O)(O)O[C@H]1O[C@H](CO)[C@@H](O)[C@H](O)[C@H]1O; assay: Pi release from PPi, phosphomolybdate colorimetry; assay type: biochemical, Hordeum vulgare; conditions: forward reaction, co-substrate UTP, 5 mM MgCl2, pH 7.5, room temperature
[11] = molecular target: T3, Arabidopsis UGPase1 (Arabidopsis thaliana, UniProt Q9M9P3); assay: Pi release from PPi, phosphomolybdate colorimetry; assay type: biochemical; conditions: forward reaction; 5 mM MgCl2; pH 7.5; room temperature; estimate, clouding at and above 3 mM
T3 construct: gene UGP2; recombinant, expressed in E. coli, purified to homogeneity as earlier reported
T3 sequence (Q9M9P3 2-469): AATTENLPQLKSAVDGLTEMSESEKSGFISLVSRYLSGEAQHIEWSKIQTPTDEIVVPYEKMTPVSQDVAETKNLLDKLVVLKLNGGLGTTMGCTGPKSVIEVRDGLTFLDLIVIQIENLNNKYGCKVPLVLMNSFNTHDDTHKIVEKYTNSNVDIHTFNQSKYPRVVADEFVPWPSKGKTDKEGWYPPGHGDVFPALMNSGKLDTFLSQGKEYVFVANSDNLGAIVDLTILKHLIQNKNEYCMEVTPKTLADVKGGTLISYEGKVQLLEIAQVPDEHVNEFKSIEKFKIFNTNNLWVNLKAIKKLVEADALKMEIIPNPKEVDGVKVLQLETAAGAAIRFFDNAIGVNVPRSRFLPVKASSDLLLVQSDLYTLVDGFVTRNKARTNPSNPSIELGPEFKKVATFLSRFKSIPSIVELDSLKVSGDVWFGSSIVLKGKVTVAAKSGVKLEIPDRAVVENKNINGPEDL

T1 sequence (Q43772 whole entry): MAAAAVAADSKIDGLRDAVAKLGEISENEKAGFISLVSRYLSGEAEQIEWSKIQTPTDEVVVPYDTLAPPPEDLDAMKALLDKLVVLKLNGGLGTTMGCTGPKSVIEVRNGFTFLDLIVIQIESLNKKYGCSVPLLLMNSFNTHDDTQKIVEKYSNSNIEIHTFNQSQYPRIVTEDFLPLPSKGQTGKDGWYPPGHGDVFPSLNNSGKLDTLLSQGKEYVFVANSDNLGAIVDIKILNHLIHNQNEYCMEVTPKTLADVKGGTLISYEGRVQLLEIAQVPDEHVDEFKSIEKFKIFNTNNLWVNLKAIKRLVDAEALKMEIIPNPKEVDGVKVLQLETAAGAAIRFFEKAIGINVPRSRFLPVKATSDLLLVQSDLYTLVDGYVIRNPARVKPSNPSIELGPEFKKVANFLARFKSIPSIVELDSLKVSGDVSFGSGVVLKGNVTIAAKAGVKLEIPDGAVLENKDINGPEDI

## O=P(O)(O)O[C@H]1O[C@H](CO)[C@H](O)[C@H](O)[C@H]1O [Gal-1-P]
[1]; estimate from near-linear rate up to 10 mM
  Km: > 10 mM

## Arabidopsis USPase (Arabidopsis thaliana)
[2]
  Km: 3.4 mM
[3]
  Km: 1.3 mM

## Arabidopsis UAGPase2 (Arabidopsis thaliana)
[4]
  Km: 0.32 mM
[5]
  Km: 0.21 mM
[6]
  Km: 1.0 mM
[7]
  Km: 3.2 mM
[8]
  Km: 3 mM

## O=P(O)(O)O[C@]1(CO)O[C@H](CO)[C@@H](O)[C@@H]1O [Fru-2-P]
[1]
  Km: > 10 mM

## O=c1ccn([C@@H]2O[C@H](COP(=O)(O)OP(=O)(O)OP(=O)(O)O)[C@@H](O)[C@H]2O)c(=O)[nH]1 [UTP]
[9]
  Pi release from PPi, phosphomolybdate colorimetry: plant UGPases are highly specific for Glc-1-P and UTP as substrates

## barley UGPase (Hordeum vulgare)
[10]
  Km: 0.45 mM

## O=P(O)(O)O[C@H]1O[C@H](CO)[C@@H](O)[C@H](O)[C@H]1O [Glc-1-P]
[9]
  Pi release from PPi, phosphomolybdate colorimetry: plant UGPases are highly specific for Glc-1-P and UTP as substrates

## O=P(O)(O)OCC1(O)O[C@H](CO)[C@@H](O)[C@@H]1O (some centres unmarked) [Fru-1-P]
[11]
  Km: > 10 mM
[1]; estimate, clouding at and above 3 mM
  Km: > 10 mM
